Experiment: yeast display, Sf9 membrane polyspecificity reagent, FACS + sequencing; frameworks hold sequencing errors
How it was run: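 Galactose induction of a Saccharomyces cerevisiae BJ5465 synthetic nanobody display library ran 36–48 hours. The cells were then stained for 1 hour at 4 °C with 10% biotinylated, detergent-solubilized Sf9 membrane reagent, pulled down on streptavidin microbeads and FACS-sorted into low and high (top ~1%) gates on expression and reagent-binding fluorescence. Labels for polyreactivity follow the gate of origin.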

| Sequence | polyreactivity (PSR sort gate) |
| --- | --- |
| QVQLVESGGGLVQAGGSLRLSCAPSGYIIRQYAMGWYRQAPGKEREFVAAISQTGGSTYYADSVKGRFTISRDNAKNTVYLQMNSLKPEDTAVYYCAARYRGQRYRKLDYWGQGTQVTVSS | high polyreactivity |
| QVQLVESGGGLVQAGGSLRLSCAPSGYTFGKYAMGWYRHAPVKERELVATIRSGGSTNYADSVKGRFTISRDNAKNTVYLQMNSLKPEDTAVYYCNKRYRYQYGYDFWGQGTQVTVSS | high polyreactivity |
| QVQLVESGGGLVQAGGSLRLSCAPSVRIFGTNAMGWYRQAPGTERELVADITSGGSTNYADSVKGRFTISRDNAKNTVYLQMISLKPEDTAVYYCAADVIGDLRWYRDEYWGQGTQVTVSS | low polyreactivity |
| QVQLVESGGGLVQAGGSLRLSCASSGFIFPLYAMGWYRKAPGKERELVAAITWRGDTTSYADSVKGRFTISRDNAKNTVYLLMIRLKPEDNAVYYCNARGYFGWYAMDYWGQGTQVTVSS | high polyreactivity |
| QVQLVESGGGLVQAGGSLRLSCASSGFTFDINAMGWYRQAPGKERELVAVITWNDGSTYYADSVKGRFTISRDNAKNTVYLQMNSLKPEDTAVYYCAAEYADSWSAFDWNYYYWGQGTQVTVSS | high polyreactivity |
| QVQLVESGGGLVQAGGSLRLSCASSGFTFFRNAMGWYRQAPGKERELVAAISGSGGRTYYADSVKGRFTISRDNAKNTVYLQMNSLKLEDTAVYYCAAVPVDPGYDYWGQVTQVTVSS | high polyreactivity |
| QVQLVESGGGLVQAGGSLRLSCASSGFTFHSYAMGWYRQAPGKERELVAAISTGGTRTYYADSVKGRFTISRDNAKNTVYLQMNSLKTEDTAVYYCAADLYRGVRIYSKYDSWGQGTQVTVSS | high polyreactivity |
| QVQLVESGGGLVQAGGSLRLSCASSGFTFPYYAMGGYRQAPGKERELVAAISWGGGSTYYADSVKGRFTISRDNAKNTVYLQMNSLKPEDTAVYYCNAYEYLSAGYDYWGQGTQVTVSS | low polyreactivity |
| QVQLVESGGGLVQAGGSLRLSCASSGFTFSRNVMGWYRQAPGKETELVADITLSGASTYYADSVKGRFTISRDNAKNPDYLQMNSLKPEDTAVYYCAADPYHWRWGWRHVYWGQGTQVTVSS | low polyreactivity |
| QVQLVESGGGLVQAGGSLRLSCASSGFTFTLYARGWYRQAPGKEWELVAAINRSGGRTYYADSVKGRFTISRDNAKNTVYLQMNSLKPEDTAVYYCNKYPWPNYYDGEYDYWGQGTQVTVSS | high polyreactivity |
| QVQLVESGGGLVQAGGSLRLSCASSGFTFYYNAMGWYRQAPGQERELVASITRSGGRTYYSDSVKGRFTISRDNAKNTVYLQMNSLKPEDTAVYYCARRYPGGYYWGQGTHVTVSS | high polyreactivity |
| QVQLVESGGGLVQAGGSLRLSCASSGGIFYRNAMGWYRQAPGKERELVAVITSSGGSTYYADSVKGRFTISRDNAKNTVYLQMNSLKPVDTAVYYCAAESVAAYYWGQGTQVTVSS | high polyreactivity |
| QVQLVESGGGLVQAGGSLRLSCASSGIILYYYAMGWYRQAPGKERELVAAIDSGDSTDYADSVKGRFTISRDNAKNTVYLQMNSLKPEDTAVYYCAADSPVDEYYHWGQGTQVTVSS | low polyreactivity |
| QVQLVESGGGLVQAGGSLRLSCASSGITFRYYAMGWYRQAPGKERELVAAISDGGSTNYADSVKGRFTISRDNAKNTVYLQMNSLKPEDTAVYYCAADYRYLFDYWGQGTQVTVSS | high polyreactivity |
| QVQLVESGGGLVQAGGSLRLSCASSGITLAGNAMGWYRQAPGKERELVAAISASGGRTSYADSVKGRFSISRDNAKNTVYLQKNSLKPEDTAVYYCNTRRYPTRPSYDYWGQGTQVTVSS | high polyreactivity |
| QVQLVESGGGLVQAGGSLRLSCASSGLTFYKNAMGWYRQAPGKERELVAVISSSGGSTYYADSVKGRFTISRDNAKNTVYLQMNSLKPEDTAVYYGGRDLYTEYRWGRLTYDYWGHGTQVTVSS | low polyreactivity |
| QVQLVESGGGLVQAGGSLRLSCASSGNTFERYAMGWYRQAPGKERELVAAITSSGGSTYYADSVKGRFTISRDNAKNTVYLQMNSLKPEDTAVYYCAASWRPRFYWGQGTQVTVSS | high polyreactivity |
| QVQLVESGGGLVQAGGSLRLSCASSGRIFSDYAMGWYRQAPGKEMEFVAAISSSGGRTYYADSVKGRFTISRDNAKNTFYLQMNSLKQEDTAVYYCNRYYGYYNTGRYGYWGQGTQVTVSS | high polyreactivity |
| QVQLVESGGGLVQAGGSLRLSCASSGRIFSVYTMGWYRQAPGKERELVAAISSGASTNYADSVKGRFTISRDNAMNTVYLQMKSLKPEDTAVYYCAAVSPRRYRYDYWGQGTQVTVSS | low polyreactivity |
| QVQLVESGGGLVQAGGSLRLSCASSGRILYLNAMGWYRQAPGKERELVAAITLRAGSTRYADSVKGRFTISRDNAKNTVYLQMNSLKPEDTAVYYCAVAYYRNRMDYWVQGTQVTVSS | high polyreactivity |
| QVQLVESGGGLVQAGGSLRLSCASSGRTFARNVMGWYRQAPGKERELVAAIRGSGGSTYYADSLKGRFTISRDNGKNTVYLQMNSLKTEDTAVYYCAADSSYTKRHSPTKLHFDYWGQGTQVTVSS | high polyreactivity |
| QVQLVESGGGLVQAGGSLRLSCASSGRTFAYNAMGRYRQAPGKERELVAAITSSGGSTYYADSVKGRFTISRDNAKNTVYLQMNSLKPEDTAVYYCASYVRPDYYAIHVDYWGQGTQVTVSS | low polyreactivity |

| Sequence | polyreactivity (PSR sort gate) |
| --- | --- |
| QVQLVESGGGLVQAGGSLRLSCASSGRTFGFNVMGWYRQATGKERELVAAISWSGGSTYYADSVKGRFTISRDNAKNTVYLQMNILKPEDTAVYYCNAQYSQVNGYDYWGQGTQVTVSS | low polyreactivity |
| QVQLVESGGGLVQAGGSLRLSCASSGRTFRKYAMGWYRQAPGKERELVAGIDTSGGSTFYADSVKGRFTISRDNAKNTVYLQMNSLKPEDTAVYYCNADRHRINRPVILYYWGQGTLVTVSS | low polyreactivity |
| QVQLVESGGGLVQAGGSLRLSCASSGRTFRYNAMGWYIQAPGKESELVAAISRSGGRTYYADSVKGRFTISRDNAKNTVYLQMNSLKPEDTAVYYCAAYYYTAGDSSSRYDYWGQGTQVTVSS | high polyreactivity |
| QVQLVESGGGLVQAGGSLRLSCASSGRTFTRYAMGWYRQAPGKERELVAAITGGGTTNYADSVKGRFTISRDNAKNTVYLQINSLKPEDTAVYYCAADEQDVFAPGLYFWGQGTQVTVSS | low polyreactivity |
| QVQLVESGGGLVQAGGSLRLSCASSGRTFVWNAMGWYRQAPGKERELVAAIDWSGGSTYYADSVKGRFTISRDNAKNTVYLQMNSLKPEDTAVYYCAKEYWYRALWYNYWGQGTQVTVSS | high polyreactivity |
| QVQLVESGGGLVQAGGSLRLSCASSGRTFWYYAMGWYRQPPGKERELVAAITSGGSTNYADSVKGRFTISRDNAKNTVYLQMNSLKPEDTAVYYCATDNPVFEYDYWGQGTQVTVSS | low polyreactivity |
| QVQLVESGGGLVQAGGSLRLSCASSGRTFYPYAMGWYRQAPGKERDLDAAITWSGGSTYYADSVKGRFTISRDYAKITVYLQMNSLKPEDTAVYYCNATYEAYIYYEYDYWGQGTQVTVSS | low polyreactivity |
| QVQLVESGGGLVQAGGSLRLSCASSGRTFYRYAMGWYRQAPGKERELVASITRRGGSTYYADSVKGRFTISRDNAKNTVYLQMNSLKPEDTAVYYCAKHSWPLDGGDYWGQGTQVTVSS | low polyreactivity |
| QVQLVESGGGLVQAGGSLRLSCASSGRTIDGYAMGWYRQAPGKERELVATITWSGDSTYYADSVKGRFTISRDNAKNTVYLKMNSLKPEDTSVYYCAADSYYAYPYGYGYWGQGTQVTVSS | high polyreactivity |
| QVQLVESGGGLVQAGGSLRLSCASSGRTLPYNAMGWYRQAPGKERELVAAISKRGSSTYYADSVKGRFTLSRDNAKNTVYLQMNSLKPEDTAVYYCAKGGSFYYWGQGTQVTVSS | high polyreactivity |
| QVQLVESGGGLVQAGGSLRLSCASSGRTYNVMGWYRQATGKERELVAAITWRGGSTHYADSVKGRFTISRDNAKNTVYLQMNSLKAEDTAVYYCSADLLYKSTRVDYWGQGTQVTVSS | low polyreactivity |
| QVQLVESGGGLVQAGGSLRLSCASSGSIFAGYAMGWYRQAPGKERELVATITSGGSTNYADSVKGRFTISRDNAKNTVYLQMNSLKPEDTAVYYCAADVEVSIPSSYTGGEYDYWGQGTQVTVSS | low polyreactivity |
| QVQLVESGGGLVQAGGSLRLSCASSGSIFRRNVMGWYRQAPGKERELVASITGRGGSTYYADSVKGRFTISRDNAKNTVYLQMNSLKPEDTAVYYSNADSLRTYDWYTRTVGYGYWVQGTQVTVSS | high polyreactivity |
| QVQLVESGGGLVQAGGSLRLSCASSGSIFSHYAMGWYRQAPGKERELVAAISRSGGSTYYADSVKGRFTISRDNAKNTVYLQMNSLKPEDTAVYYCAKEGDSGDWFDYWGQGTQVTVSS | low polyreactivity |
| QVQLVESGGGLVQAGGSLRLSCASSGSIFTCYTMGWYRQAPGKEMELVAAISQTGGRTYYADSVKVRFTISRDNAKNTVYLQMNSLKAEDTAVYYCAARSKRLAHDYWGQGTQVTVSS | high polyreactivity |
| QVQLVESGGGLVQAGGSLRLSCASSGSIFTINAMGWYRQAPGKERELVAAIPYSGGFTYYADSVKGRFTISRDNAKNTVYLQMNSLKPEDTAVYYCAAVRGYPSRITSYVYTYGYWGQGTQVTVSS | low polyreactivity |
| QVQLVESGGGLVQAGGSLRLSCASSGSIFTRYAMGWYRQAPGKERELVAAISRRGGSTYYADSVKGRFTISRDNAKNTVYIQMNSLKPEDTAVYYCYPYYIASTFDYWGQGTQVTVSS | high polyreactivity |
| QVQLVESGGGLVQAGGSLRLSCASSGSNFGYNAMGWYRQAPGKERELVAAILSSDSRTHYADSVKGRFTISRDNAKNTVYFQRNSLKPEDTAVYYCAAVKRRPGHYLYDYWGQGTQVSVSS | low polyreactivity |
| QVQLVESGGGLVQAGGSLRLSCASSGSTFHVNAMGWYRQAPGKERELVARISSTGRTSYADSVKGRFTISRDNAKNTVYLQMNSLKPEDTAVYYCAARYYRVYVSSDYYYWGQGTQVTVSS | high polyreactivity |
| QVQLVESGGGLVQAGGSLRLSCASSGSTFPYNAMGWYRQAPGKERELVAAITSSGRTNYADSVKGRFTISRDNAKNTVYLQMNSLKPEDTAVYYCAAGRWYAHRVDYWGQGTQVTVSS | low polyreactivity |
| QVQLVESGGGLVQAGGSLRLSCASSGSTFTTNALGWYRQAPGKERELVAAISRRGGSTYYADSVKGRFRISRDNAKNTVYLQMNSLKPEDTAVYYCNAVRAEYEFDYWGQGTQVTVSS | high polyreactivity |

From the nanobody polyreactivity screen of Harvey et al. (2022)
